{"source": "patent US20200031807", "molecular_target": "GST-histone H3 [GST: P08515]", "sequence (P08515 whole entry, looked up)": "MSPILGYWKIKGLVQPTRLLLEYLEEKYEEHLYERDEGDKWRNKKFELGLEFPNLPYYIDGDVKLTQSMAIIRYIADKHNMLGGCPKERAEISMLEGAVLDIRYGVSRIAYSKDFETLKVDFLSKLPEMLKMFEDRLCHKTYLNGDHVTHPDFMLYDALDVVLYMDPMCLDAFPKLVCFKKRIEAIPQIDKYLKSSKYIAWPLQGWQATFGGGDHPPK"}
{"protein": "Flag-tagged AURKB protein (protein) MAQKENSYPWPYGRQTAPSGLSTLPQRVLRKEPVTPSALVLMSRSNVQPTAAPGQKVMENSSGTPDILTRRHFTIDDFEIGRPLGKGKFGNVYLAREKKSHFIVALKVLFKSQIEKEGVEHQLRREIEIQAHLHHPNILRLYNYFYDRRRIYLILEYAPRGELYKELQKSCTFDEQRTATIMEELADALMYCHGKKVIHRDIKPENLLLGLKGELKIADFGWSVHAPSLRRKTMCGTLDYLPPEMIEGRMHNEKVDLWCIGVLCYELLVGNPPFESASHNETYRRIVKVDLKFPASVPMGAQDLISKLLRHNPSERLPLAQVSAHPWVRANSRRVLPPSALQSVA", "values": [{"measurement": "in vitro phosphorylation, read by western blot", "value": "the Flag-AURKB protein had kinase activity and can phosphorylate histone H3"}]}
